# Data reported in US20220204602A1.
# What was measured:
# [1] = biological target: Cynomolgus C5 (Cynomolgus); experiment: BLI (Gator); pH 7.4
# human FcRn (human) = human FcRn (human) (UniProt P55899); experiment: SPR (Biacore); pH 6.0
# [2] = biological target: Cynomolgus C5 (Cynomolgus); experiment: BLI (Gator); pH 5.8
# human FcRn (human), sequence (P55899 24-297, chain 1 of 2): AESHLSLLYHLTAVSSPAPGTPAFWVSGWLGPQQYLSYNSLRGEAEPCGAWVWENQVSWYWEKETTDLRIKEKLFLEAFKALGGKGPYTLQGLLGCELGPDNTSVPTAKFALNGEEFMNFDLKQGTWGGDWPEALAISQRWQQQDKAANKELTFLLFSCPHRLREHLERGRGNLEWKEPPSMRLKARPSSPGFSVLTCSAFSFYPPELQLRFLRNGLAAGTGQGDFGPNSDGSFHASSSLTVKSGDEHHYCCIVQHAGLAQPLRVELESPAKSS
# human FcRn (human), sequence (main, as listed by the source, chain 2 of 2): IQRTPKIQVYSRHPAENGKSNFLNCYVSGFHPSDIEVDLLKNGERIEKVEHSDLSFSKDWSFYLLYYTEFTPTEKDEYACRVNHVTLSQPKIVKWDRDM
substance,measurement,setting,value
anti-C5 mAb/FH SCR1-5 fusion protein FMEH-IgG4PLA-FH1-5 (from UniProt P08603 19-322),Kd,[1],6.04 nM
same,Ka,human FcRn (human),1.13e+08 M⁻¹
same,Kd,[2],41.1 nM
